Reference: article PMC11615386, “Phosphorylation-mediated conformational change regulates human SLFN11” (Nature Communications, 2024)
Substitutions are numbered along the chain they refer to. Numbers in names are those of the source.

B1: Human Schlafen 11 (SLFN11), wild type (enzyme)
chain: MEANQCPLVVEPSYPDLVINVGEVTLGEENRKKLQKIQRDQEKERVMRAACALLNSGGGVIRMAKKVEHPVEMGLDLEQSLRELIQSSDLQAFFETKQQGRCFYIFVKSWSSGPFPEDRSVKPRLCSLSSSLYRRSETSVRSMDSREAFCFLKTKRKPKILEEGPFHKIHKGVYQELPNSDPADPNSDPADLIFQKDYLEYGEILPFPESQLVEFKQFSTKHFQEYVKRTIPEYVPAFANTGGGYLFIGVDDKSREVLGCAKENVDPDSLRRKIEQAIYKLPCVHFCQPQRPITFTLKIVNVLKRGELYGYACMIRVNPFCCAVFSEAPNSWIVEDKYVCSLTTEKWVGMMTDTDPDLLQLSEDFECQLSLSSGPPLSRPVYSKKGLEHKKELQQLLFSVPPGYLRYTPESLWRDLISEHRGLEELINKQMQPFFRGILIFSRSWAVDLNLQEKPGVICDALLIAQNSTPILYTILREQDAEGQDYCTRTAFTLKQKLVNMGGYTGKVCVRAKVLCLSPESSAEALEAAVSPMDYPASYSLAGTQHMEALLQSLVIVLLGFRSLLSDQLGCEVLNLLTAQQYEIFSRSLRKNRELFVHGLPGSGKTIMAMKIMEKIRNVFHCEAHRILYVCENQPLRNFISDRNICRAETRKTFLRENFEHIQHIVIDEAQNFRTEDGDWYGKAKSITRRAKGGPGILWIFLDYFQTSHLDCSGLPPLSDQYPREELTRIVRNADPIAKYLQKEMQVIRSNPSFNIPTGCLEVFPEAEWSQGVQGTLRIKKYLTVEQIMTCVADTCRRFFDRGYSPKDVAVLVSTAKEVEHYKYELLKAMRKKRVVQLSDACDMLGDHIVLDSVRRFSGLERSIVFGIHPRTADPAILPNVLICLASRAKQHLYIFPWGGH
notes: Schlafen 11 (SLFN11), human; N-terminal nuclease domain, linker domain and C-terminal helicase domain; also called SLFN11^wt
B2: SLFN11 phosphomimetic mutant T230D (enzyme, human)
chain: B1 chain with T230D
notes: Schlafen 11 (SLFN11), human, with the phosphomimetic mutation T230D in the nuclease domain; Made by quick change PCR from the wild-type construct; also called SLFN11^T230D
B3: SLFN11 phosphomimetic mutant S219D (enzyme, human)
chain: B1 chain with S219D
notes: Schlafen 11 (SLFN11), human, with the phosphomimetic mutation S219D in the nuclease domain; Made by quick change PCR from the wild-type construct; also called SLFN11^S219D

Tests used:
SLFN11 = target: T1, SLFN11 (Homo sapiens, UniProt Q7Z7L1, S753D); test: nanoDSF thermal shift (Tycho NT.[…]); assay type: binding; conditions: 1 mM nucleotide, 300 nM protein, 25 mM Tris pH 7.5, 60 mM NaCl, 2 mM MgCl2
T1 construct: S753D monomer, 104 kDa, model residues 7-897
T1 sequence (Q7Z7L1 1-901 S753D): B1 chain with S753D

[1] = target: the molecule itself; test: mass photometry; 50 nM SLFN11 in 25 mM Tris pH 7.5, 2 mM MgCl2, 1 mM DTT with variable concentrations of NaCl (80 mM NaCl in Fig. 4d, e); dimer to monomers

| Molecule | inflection temperature shift (SLFN11) | stoichiometry N [1] |
| --- | --- | --- |
| Nc1ncnc2c1ncn2[C@@H]1O[C@H](COP(=O)(O)OP(=O)(O)OP(=O)(O)O)[C@@H](O)[C@H]1O [ATP] | ATP and ATPγS caused a large increase in the inflection temperatures of SLFN11^S753D | – |
| B1 | – | 2 |
| B2 | – | 2 |
| B3 | – | 2 |
